According to patent US20250163140A1 (Kyowa Kirin, published 2025):
Where two headings read alike, the source gives them in different places.

T1: Recombinant Human FGF-23 (R&D Systems, Cat No. 2604-FG-025/CF) (human, UniProt Q9GZV9 25-251)
T1 sequence (looked up): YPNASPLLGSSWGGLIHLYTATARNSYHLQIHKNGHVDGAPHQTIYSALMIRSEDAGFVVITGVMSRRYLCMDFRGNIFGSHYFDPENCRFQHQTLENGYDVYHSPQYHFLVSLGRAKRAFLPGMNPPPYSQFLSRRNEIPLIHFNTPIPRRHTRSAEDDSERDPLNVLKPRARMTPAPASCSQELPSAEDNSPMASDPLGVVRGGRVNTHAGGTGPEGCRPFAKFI


Assays:
[1] = target: T1, Recombinant Human FGF-23 (R&D Systems, …); assay: cell-based or functional assay
[2] = target: T1, Recombinant Human FGF-23 (R&D Systems, …); assay: cell-based or functional assay; remark: listed apart in the source
[3] = target: T1, Recombinant Human FGF-23 (R&D Systems, …); assay: SPR, antibody captured on Protein A chip, FGF-23 analyte
[4] = target: T1, Recombinant Human FGF-23 (R&D Systems, …); assay: cell-based or functional assay; remark: listed apart in the source
[5] = target: T1, Recombinant Human FGF-23 (R&D Systems, …); assay: SPR, antibody captured by anti-human IgG, FGF-23 analyte
[6] = target: T1, Recombinant Human FGF-23 (R&D Systems, …); assay: as above; remark: listed apart in the source
[7] = target: T2, human FcRn (human FcRn-His tag with human β2 microglobulin) (human, UniProt P55899 24-297; P61769 21-119); assay: SPR pH 6, FcRn-His captured by anti-His, antibody analyte
T2 construct: also called h FcRn; hFcRn

[8] = target: T1, Recombinant Human FGF-23 (R&D Systems, …); assay: SPR, antibody captured by anti-human IgG, FGF-23 analyte; remark: listed apart in the source
[9] = target: T1, Recombinant Human FGF-23 (R&D Systems, …); assay: as above; remark: listed apart in the source

| Binder | FGF23 neutralizing activity IC50 (luciferase promoter assay) [4] [µg/mL] | Kd [5] [pM] | also measured |
| --- | --- | --- | --- |
| antibody A-10 (antibody, V domains shown, not shown: human kappa chain constant region) VH: QVQLVQSGAEVKKPGASVKVSCKASGYTFTNHYMHWVRQAPGQGLEWMGIINPISGSTSNAQKFQGRVTMTRDTSTSTVYMELSSLRSEDTAVYYCARDYVDAFDFWGQGTMVTVSS VL: AIQLTQSPSSLSASVGDRVTITCRASQGISSALVWYQQKPGKAPKLLIYDASSLESGVPSRFSGSGSGTDFTLTISSLQPEDFATYYCQQFYDDFDFGPGTKVDIK |  |  | FGF23 neutralizing activity, fold against antibody A [1]: 2 fold; FGF23 neutralizing activity IC50 (luciferase promoter assay) [2]: 0.0015 µg/mL; Kd [3]: 20.2 pM |
| antibody D105A (antibody, human IgG1, V domains shown, also called modified antibody D105) VH: QVQLVQSGAEVKKPGASVKVSCKASGYTFTNHYMHWVRQAPGQGLEWMGIINPISGSTSNAQKFQGRVTMTRDTSTSTVYMELSSLRSEDTAVYYCARDIVDAFAFWGQGTMVTVSS VL: AIQLTQSPSSLSASVGDRVTITCRASQGISSALVWYQQKPGKAPKLLIYDASSLESGVPSRFSGSGSGTDFTLTISSLQPEDFATYYCQQFNDYFTFGPGTKVDIK | > 0.1 |  | Kd [6]: 108 pM |
| antibody A_G2_LS (antibody, not shown: human kappa chain constant region; copies: 2 + 2) heavy: QVQLVQSGAEVKKPGASVKVSCKASGYTFTNHYMHWVRQAPGQGLEWMGIINPISGSTSNAQKFQGRVTMTRDTSTSTVYMELSSLRSEDTAVYYCARDIVDAFDFWGQGTMVTVSSASTKGPSVFPLAPCSRSTSESTAALGCLVKDYFPEPVTVSWNSGALTSGVHTFPAVLQSSGLYSLSSVVTVPSSNFGTQTYTCNVDHKPSNTKVDKTVERKCCVECPPCPAPPVAGPSVFLFPPKPKDTLMISRTPEVTCVVVDVSHEDPEVQFNWYVDGVEVHNAKTKPREEQFNSTFRVVSVLTVVHQDWLNGKEYKCKVSNKGLPAPIEKTISKTKGQPREPQVYTLPPSREEMTKNQVSLTCLVKGFYPSDIAVEWESNGQPENNYKTTPPMLDSDGSFFLYSKLTVDKSRWQQGNVFSCSVLHEALHSHYTQKSLSLSPGK light: AIQLTQSPSSLSASVGDRVTITCRASQGISSALVWYQQKPGKAPKLLIYDASSLESGVPSRFSGSGSGTDFTLTISSLQPEDFATYYCQQFNDYFTFGPGTKVDIK |  |  | Kd [7]: 310000 pM |
| antibody I100A (antibody, human IgG1, V domains shown, also called modified antibody I100) VH: QVQLVQSGAEVKKPGASVKVSCKASGYTFTNHYMHWVRQAPGQGLEWMGIINPISGSTSNAQKFQGRVTMTRDTSTSTVYMELSSLRSEDTAVYYCARDAVDAFDFWGQGTMVTVSS VL: AIQLTQSPSSLSASVGDRVTITCRASQGISSALVWYQQKPGKAPKLLIYDASSLESGVPSRFSGSGSGTDFTLTISSLQPEDFATYYCQQFNDYFTFGPGTKVDIK | 0.0051 | 25.1 | Kd [8]: 14 pM; Kd [9]: 28.9 pM |
| antibody I100L (antibody, human IgG1, V domains shown, also called modified antibody I100) VH: QVQLVQSGAEVKKPGASVKVSCKASGYTFTNHYMHWVRQAPGQGLEWMGIINPISGSTSNAQKFQGRVTMTRDTSTSTVYMELSSLRSEDTAVYYCARDLVDAFDFWGQGTMVTVSS VL: AIQLTQSPSSLSASVGDRVTITCRASQGISSALVWYQQKPGKAPKLLIYDASSLESGVPSRFSGSGSGTDFTLTISSLQPEDFATYYCQQFNDYFTFGPGTKVDIK |  |  | Kd [8]: 12.6 pM |
| antibody D105T (antibody, human IgG1, V domains shown, also called modified antibody D105) VH: QVQLVQSGAEVKKPGASVKVSCKASGYTFTNHYMHWVRQAPGQGLEWMGIINPISGSTSNAQKFQGRVTMTRDTSTSTVYMELSSLRSEDTAVYYCARDIVDAFTFWGQGTMVTVSS VL: AIQLTQSPSSLSASVGDRVTITCRASQGISSALVWYQQKPGKAPKLLIYDASSLESGVPSRFSGSGSGTDFTLTISSLQPEDFATYYCQQFNDYFTFGPGTKVDIK | > 0.1 |  | Kd [6]: 111 pM |
| antibody I100V (antibody, human IgG1, V domains shown, also called modified antibody I100) VH: QVQLVQSGAEVKKPGASVKVSCKASGYTFTNHYMHWVRQAPGQGLEWMGIINPISGSTSNAQKFQGRVTMTRDTSTSTVYMELSSLRSEDTAVYYCARDVVDAFDFWGQGTMVTVSS VL: AIQLTQSPSSLSASVGDRVTITCRASQGISSALVWYQQKPGKAPKLLIYDASSLESGVPSRFSGSGSGTDFTLTISSLQPEDFATYYCQQFNDYFTFGPGTKVDIK |  |  | Kd [8]: 4.73 pM |
| antibody A_LS (antibody, human IgG1, name in EU numbering, positions are EU index; not shown: human kappa chain constant region; copies: 2 + 2) heavy: not shown light: AIQLTQSPSSLSASVGDRVTITCRASQGISSALVWYQQKPGKAPKLLIYDASSLESGVPSRFSGSGSGTDFTLTISSLQPEDFATYYCQQFNDYFTFGPGTKVDIK |  |  | Kd [7]: 142000 pM |
| antibody A_IgG4PE_R409K_LS (antibody, not shown: human kappa chain constant region; copies: 2 + 2) heavy: QVQLVQSGAEVKKPGASVKVSCKASGYTFTNHYMHWVRQAPGQGLEWMGIINPISGSTSNAQKFQGRVTMTRDTSTSTVYMELSSLRSEDTAVYYCARDIVDAFDFWGQGTMVTVSSASTKGPSVFPLAPCSRSTSESTAALGCLVKDYFPEPVTVSWNSGALTSGVHTFPAVLQSSGLYSLSSVVTVPSSSLGTKTYTCNVDHKPSNTKVDKRVESKYGPPCPPCPAPEFEGGPSVFLFPPKPKDTLMISRTPEVTCVVVDVSQEDPEVQFNWYVDGVEVHNAKTKPREEQFNSTYRVVSVLTVLHQDWLNGKEYKCKVSNKGLPSSIEKTISKAKGQPREPQVYTLPPSQEEMTKNQVSLTCLVKGFYPSDIAVEWESNGQPENNYKTTPPVLDSDGSFFLYSKLTVDKSRWQEGNVFSCSVLHEALHSHYTQKSLSLSLGK light: AIQLTQSPSSLSASVGDRVTITCRASQGISSALVWYQQKPGKAPKLLIYDASSLESGVPSRFSGSGSGTDFTLTISSLQPEDFATYYCQQFNDYFTFGPGTKVDIK |  |  | Kd [7]: 116000 pM |

Further lines, with some results ahead:

| FGF23 neutralizing activity IC50 (luciferase promoter assay) [4] [µg/mL] | Kd [5] [pM] | Binder | also measured |
| --- | --- | --- | --- |
| > 0.1 | 219 | antibody I100D (antibody, human IgG1, V domains shown, also called modified antibody I100) VH: QVQLVQSGAEVKKPGASVKVSCKASGYTFTNHYMHWVRQAPGQGLEWMGIINPISGSTSNAQKFQGRVTMTRDTSTSTVYMELSSLRSEDTAVYYCARDDVDAFDFWGQGTMVTVSS VL: AIQLTQSPSSLSASVGDRVTITCRASQGISSALVWYQQKPGKAPKLLIYDASSLESGVPSRFSGSGSGTDFTLTISSLQPEDFATYYCQQFNDYFTFGPGTKVDIK |  |
| > 0.1 | 149 | antibody I100G (antibody, human IgG1, V domains shown, also called modified antibody I100) VH: QVQLVQSGAEVKKPGASVKVSCKASGYTFTNHYMHWVRQAPGQGLEWMGIINPISGSTSNAQKFQGRVTMTRDTSTSTVYMELSSLRSEDTAVYYCARDGVDAFDFWGQGTMVTVSS VL: AIQLTQSPSSLSASVGDRVTITCRASQGISSALVWYQQKPGKAPKLLIYDASSLESGVPSRFSGSGSGTDFTLTISSLQPEDFATYYCQQFNDYFTFGPGTKVDIK |  |
| 0.003 | 18.6 | antibody I100Y (antibody, human IgG1, V domains shown, also called modified antibody I100) VH: QVQLVQSGAEVKKPGASVKVSCKASGYTFTNHYMHWVRQAPGQGLEWMGIINPISGSTSNAQKFQGRVTMTRDTSTSTVYMELSSLRSEDTAVYYCARDYVDAFDFWGQGTMVTVSS VL: AIQLTQSPSSLSASVGDRVTITCRASQGISSALVWYQQKPGKAPKLLIYDASSLESGVPSRFSGSGSGTDFTLTISSLQPEDFATYYCQQFNDYFTFGPGTKVDIK |  |
| 0.0262 | 93.4 | antibody I100N (antibody, human IgG1, V domains shown, also called modified antibody I100) VH: QVQLVQSGAEVKKPGASVKVSCKASGYTFTNHYMHWVRQAPGQGLEWMGIINPISGSTSNAQKFQGRVTMTRDTSTSTVYMELSSLRSEDTAVYYCARDNVDAFDFWGQGTMVTVSS VL: AIQLTQSPSSLSASVGDRVTITCRASQGISSALVWYQQKPGKAPKLLIYDASSLESGVPSRFSGSGSGTDFTLTISSLQPEDFATYYCQQFNDYFTFGPGTKVDIK |  |
| 0.0089 | 67.2 | antibody I100H (antibody, human IgG1, V domains shown, also called modified antibody I100) VH: QVQLVQSGAEVKKPGASVKVSCKASGYTFTNHYMHWVRQAPGQGLEWMGIINPISGSTSNAQKFQGRVTMTRDTSTSTVYMELSSLRSEDTAVYYCARDHVDAFDFWGQGTMVTVSS VL: AIQLTQSPSSLSASVGDRVTITCRASQGISSALVWYQQKPGKAPKLLIYDASSLESGVPSRFSGSGSGTDFTLTISSLQPEDFATYYCQQFNDYFTFGPGTKVDIK |  |
| 0.0825 | 222 | antibody I100R (antibody, human IgG1, V domains shown, also called modified antibody I100) VH: QVQLVQSGAEVKKPGASVKVSCKASGYTFTNHYMHWVRQAPGQGLEWMGIINPISGSTSNAQKFQGRVTMTRDTSTSTVYMELSSLRSEDTAVYYCARDRVDAFDFWGQGTMVTVSS VL: AIQLTQSPSSLSASVGDRVTITCRASQGISSALVWYQQKPGKAPKLLIYDASSLESGVPSRFSGSGSGTDFTLTISSLQPEDFATYYCQQFNDYFTFGPGTKVDIK |  |
